The labels stand for the following.
T1: human receptor tyrosine kinase AXL (human, UniProt P30530 26-894)
T1 construct: also called hAXL; human AXL on NIH3T3-AXL cl.7, Ratl-AXL cl.2, Hs578T, NCI-H292 and CaSki cells
T1 sequence: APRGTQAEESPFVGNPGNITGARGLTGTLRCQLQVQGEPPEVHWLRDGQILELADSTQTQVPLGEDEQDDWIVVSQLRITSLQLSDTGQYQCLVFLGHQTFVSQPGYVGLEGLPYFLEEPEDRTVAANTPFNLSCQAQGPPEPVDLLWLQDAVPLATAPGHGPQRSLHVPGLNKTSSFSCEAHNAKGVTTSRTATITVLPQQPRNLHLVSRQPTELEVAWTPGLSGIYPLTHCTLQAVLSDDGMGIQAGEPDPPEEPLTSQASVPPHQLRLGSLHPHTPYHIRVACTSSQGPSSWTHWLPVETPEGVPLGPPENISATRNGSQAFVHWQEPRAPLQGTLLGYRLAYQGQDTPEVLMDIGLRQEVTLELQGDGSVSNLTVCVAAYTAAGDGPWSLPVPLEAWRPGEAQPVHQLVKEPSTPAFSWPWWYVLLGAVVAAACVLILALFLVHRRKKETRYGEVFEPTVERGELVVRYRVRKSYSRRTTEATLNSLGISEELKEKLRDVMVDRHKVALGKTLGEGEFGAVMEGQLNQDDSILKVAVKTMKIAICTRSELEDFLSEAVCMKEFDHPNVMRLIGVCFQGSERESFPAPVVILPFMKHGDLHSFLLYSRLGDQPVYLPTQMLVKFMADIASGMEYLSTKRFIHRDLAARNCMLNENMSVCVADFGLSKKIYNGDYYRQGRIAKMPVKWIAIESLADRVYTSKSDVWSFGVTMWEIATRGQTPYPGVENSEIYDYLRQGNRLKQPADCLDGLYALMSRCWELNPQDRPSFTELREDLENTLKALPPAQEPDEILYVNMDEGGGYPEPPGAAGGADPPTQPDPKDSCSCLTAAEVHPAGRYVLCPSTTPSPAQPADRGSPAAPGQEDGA

B1: rat anti-human AXL monoclonal antibody #11B7 (antibody, rat IgG1, V domains shown)
VH: EVQLQESGPGLVKPSQSLSLTCSVTGYSITSNYWGWIRKFPGDKMEWMGYITYSGSTSYNPSLKSRISITRDTSKNQFFLQLNSVTSEDTATYYCAITTFYYWGQGVMVTVSS
VL: DIQMTQAPSSLPASLGDRVTITCRASQDIGNYLRWFQQKPGKSPRLMISGATNLAAGVPSRFSGSRSGSDYSLTISSLESEDMADYYCLQSKESPWTFGGGTKLELKR
notes: also called I11B7; rat anti-Axl antibody 11B7
B2: chimeric anti-AXL antibody ch11B7-IgG1 (antibody, V domains shown)
VH: B1 VH
VL: B1 VL
notes: Rat 11B7 variable domains on human IgG1 / human kappa; also called chm11B7; chimeric anti-AXL mAb #11B7
B3: rat anti-human AXL monoclonal antibody #11D5 (antibody, rat IgG2a, V domains shown)
VH: EVQLQESGPGLVKPSQSLSLTCSVTGYSITSNYWGWIRKFPGNKMEWIGHITNSGNTTYNPSLKSRISISRDTSRNQFFLQLNSVTTEDTATYYCAKGAFDYWGQGVMVTVSS
VL: DIQMTQSPSSMSTSLGDRVTITCRASQDIGNYLSWFQQKVGKSPRRMIYGAIKLAVGVPSRFSGSRSGSDYSLTISSLESEDMAIYYCLQYIQFPLTFGSGTKLELKR
notes: also called III11D5
B4: chimeric anti-AXL antibody ch11D5-IgG1 (antibody, V domains shown)
VH: B3 VH
VL: B3 VL
notes: also called chm11D5; human chimeric antibody (of #11D5)

The experiment addresses T1, human receptor tyrosine kinase AXL. Briefly: FACS Scatchard, apparent KD (KDapp) on NIH3T3 cells overexpressing human AXL.
As to B1, the Kd amounted to 0.38 nM. On to B2, for which the Kd stood at 0.6 nM.

For the molecule B3, the Kd was 0.81 nM. To B4 belongs 0.4 nM.

Values taken from patent publication EP2270053A1 (U3 Pharma GmbH, dated 2011).
